In the supplement of paper PMC7877785:
± gives the uncertainty stated by the source.

Experiment: self-splicing fitness, log relative to wild type (ln ratio); higher = more splicing; Tetrahymena group I intron in knt gene, E. coli kanamycin selection, DiMSum; sequences stand for … in CUCUCU…GGAGGGAAAAGUUAUCAGGCAUGCACCUGGUAGCUAGUCUUUAAACCAAUAGAUUGCAUCGGUUUAAAAGGCAAGACCGUCAAAUUGCGGGAAAGGGGUCAACAGCCGUUCAGUACCAAGUCUCAGGGGAAACUUUGAGAUGGCCUUGCAAAGGGUAUGGUAAUAAGCUGACGGACAUGGUCCUAACCACGCAGCCAAGUCCUAAGUCAACAGAUCUUCUGUUGAUAUGGAUGCAGUUCACAGACUAAAUGUCGGUCGGGGAAGAUGUAUUCUUCUCAUAAGAUAUAGUCGGACCUCUCCUUAAUGGGAGCUAGCGGAUGAAGUGAUGCAACACUGGAGCCGCUGGGAACUAAUUUGUAUGCGAAAGUAUAUUGAUUAGUUUUGGAGUACUCGUGGUCG
Procedure, shortened: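 Fitness was computed with DiMSum as the error-weighted combination of replicate fold changes, kanamycin versus none, each normalised to wild type. The library randomised all eight intron nucleotides of the P1ex region, with the intron placed in the knt kanamycin-resistance gene on pET-22b(+) in E. coli BL21(DE3). Six replicate transformations were grown overnight at 37°C or 30°C on LB agar with or without 25 μg/mL kanamycin, plus 100 μg/mL carbenicillin, 50 μM IPTG and 0.2% rhamnose. Pooled colonies were amplicon-sequenced on an Illumina HiSeq 2500.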

Sequence	self-splicing fitness (ln) (30 °C)	self-splicing fitness (ln) (37 °C)
CGUUAGCAAUAUUACGCACU	-2.03 ± 0.12	-0.906 ± 0.11
CGUUAGCAAUAUUACGCAUC	–	-2.72 ± 0.41
CGUUAGCAAUAUUACGCCAG	-0.657 ± 0.22	0.474 ± 0.35
CGUUAGCAAUAUUACGCUGA	-2.78 ± 0.3	-2.66 ± 0.29
CGUUAGCAAUAUUACGGAUC	-2.18 ± 0.12	-1.13 ± 0.19
CGUUAGCAAUAUUACGGGUG	-0.565 ± 0.057	0.0881 ± 0.071
CGUUAGCAAUAUUACGGUAC	-2.98 ± 0.24	-2.96 ± 0.38
CGUUAGCAAUAUUACGUAAC	–	-2.3 ± 0.46
CGUUAGCAAUAUUACGUACA	-0.358 ± 0.11	-0.966 ± 0.12
CGUUAGCAAUAUUACGUACU	-0.583 ± 0.078	0.0264 ± 0.097
CGUUAGCAAUAUUACGUAGA	-2.87 ± 0.18	-1.9 ± 0.22
CGUUAGCAAUAUUACGUAGU	-4.27 ± 0.25	-2.85 ± 0.23
CGUUAGCAAUAUUACGUGAG	-1.59 ± 0.087	-0.0698 ± 0.13
CGUUAGCAAUAUUACGUUGC	-3.94 ± 0.34	-1.95 ± 0.18
CUAAAGCAAUAUUACGAAAA	-3.34 ± 0.41	-2.19 ± 0.35
CUAAAGCAAUAUUACGAAGA	-2.46 ± 0.27	-1.61 ± 0.3
CUAAAGCAAUAUUACGAAGG	-1.03 ± 0.095	-0.0689 ± 0.14
CUAAAGCAAUAUUACGACAG	0.277 ± 0.093	0.751 ± 0.12
CUAAAGCAAUAUUACGAGAG	-1.13 ± 0.075	-0.601 ± 0.099
CUAAAGCAAUAUUACGAGGG	-2.22 ± 0.094	-2.22 ± 0.16
CUAAAGCAAUAUUACGAGGU	-4.41 ± 0.24	-2.81 ± 0.25
CUAAAGCAAUAUUACGAUCG	0.485 ± 0.073	0.485 ± 0.1
CUAAAGCAAUAUUACGAUGC	-3.96 ± 0.3	-3.1 ± 0.33
CUAAAGCAAUAUUACGAUUU	-4.23 ± 0.28	-2.46 ± 0.32
CUAAAGCAAUAUUACGCAAA	-3.47 ± 0.25	–

Sequence	self-splicing fitness (ln) (30 °C)	self-splicing fitness (ln) (37 °C)
CUAAAGCAAUAUUACGCUCC	-3.15 ± 0.29	-2.29 ± 0.35
CUAAAGCAAUAUUACGGAUU	-4.39 ± 0.22	-2.62 ± 0.23
CUAAAGCAAUAUUACGGGAC	-2.11 ± 0.13	-0.677 ± 0.13
CUAAAGCAAUAUUACGGUCC	-4.33 ± 0.47	-2.2 ± 0.35
CUAAAGCAAUAUUACGUAAC	-2.86 ± 0.12	-1.62 ± 0.12
CUAAAGCAAUAUUACGUCGA	–	-1.99 ± 0.2
CUAAAGCAAUAUUACGUCUC	–	-1.93 ± 0.46
CUAAAGCAAUAUUACGUGCA	-2.77 ± 0.2	-1.91 ± 0.18
CUAAAGCAAUAUUACGUGCC	-4.57 ± 0.29	-2.25 ± 0.18
CUAAAGCAAUAUUACGUGGU	-3.41 ± 0.12	-2.73 ± 0.15
CUAAAGCAAUAUUACGUGUA	-3.82 ± 0.19	-3.2 ± 0.23
CUACAGCAAUAUUACGACCG	0.86 ± 0.11	-0.315 ± 0.14
CUACAGCAAUAUUACGAGAA	-2.84 ± 0.46	-1.92 ± 0.28
CUACAGCAAUAUUACGAGUU	-4.98 ± 0.2	-2.76 ± 0.17
CUACAGCAAUAUUACGCAUA	-3.32 ± 0.24	-2.28 ± 0.2
CUACAGCAAUAUUACGCCCC	-2.86 ± 0.41	-1.4 ± 0.35
CUACAGCAAUAUUACGCUAG	-3.58 ± 0.18	-2.36 ± 0.23
CUACAGCAAUAUUACGCUGU	-3.9 ± 0.2	-2.8 ± 0.22
CUACAGCAAUAUUACGCUUG	-2.37 ± 0.15	-2.26 ± 0.16
CUACAGCAAUAUUACGGCUC	-3.53 ± 0.23	-1.8 ± 0.31
CUACAGCAAUAUUACGGUAG	-3.39 ± 0.15	-3.06 ± 0.23
CUACAGCAAUAUUACGGUCA	-3.37 ± 0.28	-1.96 ± 0.24
CUACAGCAAUAUUACGUAAG	-1.14 ± 0.068	-0.424 ± 0.092
CUACAGCAAUAUUACGUACG	-0.289 ± 0.088	0.18 ± 0.099
